Reference: patent US20250296996A1 (BROADWING BIO, published 2025)

T1: P66 (rabbit ANGPTL7-his) (rabbit, UniProt G1T4P1 27-344)
T1 construct: mature; also called rabbit ANGPTL7 protein
T1 sequence: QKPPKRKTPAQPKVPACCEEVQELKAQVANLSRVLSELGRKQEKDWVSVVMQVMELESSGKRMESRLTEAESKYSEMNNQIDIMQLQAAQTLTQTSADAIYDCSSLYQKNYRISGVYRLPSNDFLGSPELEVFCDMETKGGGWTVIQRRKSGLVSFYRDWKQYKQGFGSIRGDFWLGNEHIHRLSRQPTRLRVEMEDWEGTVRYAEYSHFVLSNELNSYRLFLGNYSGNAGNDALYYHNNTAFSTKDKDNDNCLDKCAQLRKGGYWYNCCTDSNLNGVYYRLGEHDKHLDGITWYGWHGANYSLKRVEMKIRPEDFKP

T2: P62 (huANGPTL7-his) (human, UniProt O43827 27-346)
T2 construct: not shown: C-terminal short linker and His tag
T2 chain: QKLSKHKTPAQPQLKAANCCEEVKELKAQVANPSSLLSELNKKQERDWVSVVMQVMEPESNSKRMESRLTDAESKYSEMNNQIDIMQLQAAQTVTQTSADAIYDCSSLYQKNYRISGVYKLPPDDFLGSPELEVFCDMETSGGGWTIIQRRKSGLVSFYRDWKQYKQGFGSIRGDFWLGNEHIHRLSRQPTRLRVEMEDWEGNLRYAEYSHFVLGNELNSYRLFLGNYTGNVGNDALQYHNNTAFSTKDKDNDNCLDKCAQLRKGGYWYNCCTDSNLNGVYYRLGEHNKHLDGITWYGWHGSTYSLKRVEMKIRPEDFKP

T3: muANGPTL7-his (R&D Systems) (mouse, UniProt Q8R1Q3 22-337, limits assumed)
T3 construct: Bought protein; also called mouse ANGPTL7 protein
T3 sequence (looked up): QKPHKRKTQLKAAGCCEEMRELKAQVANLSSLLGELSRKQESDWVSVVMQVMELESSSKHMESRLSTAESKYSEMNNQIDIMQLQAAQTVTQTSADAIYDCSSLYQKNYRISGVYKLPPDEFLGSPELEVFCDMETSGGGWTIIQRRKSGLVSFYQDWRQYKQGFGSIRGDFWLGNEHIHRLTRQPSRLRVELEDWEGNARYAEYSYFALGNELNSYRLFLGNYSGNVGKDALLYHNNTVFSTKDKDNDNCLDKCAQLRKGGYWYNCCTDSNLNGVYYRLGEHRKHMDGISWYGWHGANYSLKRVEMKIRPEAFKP

T4: Pext-01 (huANGTPL7-FLAG multimer) (human, UniProt O43827 27-346)
T4 construct: also called PExt-1; human wild type ANGPTL7 multimer; not shown: FLAG tag
T4 sequence: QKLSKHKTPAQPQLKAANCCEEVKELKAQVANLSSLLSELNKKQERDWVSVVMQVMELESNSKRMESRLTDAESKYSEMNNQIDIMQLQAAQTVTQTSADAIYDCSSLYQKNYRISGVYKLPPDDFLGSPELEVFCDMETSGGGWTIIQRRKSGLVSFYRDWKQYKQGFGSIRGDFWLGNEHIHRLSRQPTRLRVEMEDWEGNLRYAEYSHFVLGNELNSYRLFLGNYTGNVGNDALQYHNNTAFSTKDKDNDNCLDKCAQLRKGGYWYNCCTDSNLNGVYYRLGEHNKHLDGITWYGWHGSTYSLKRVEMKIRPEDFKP


How the values were obtained:
P66 (rabbit ANGPTL7-his) = target: T1, P66 (rabbit ANGPTL7-his); assay: BLI Octet HTX; IgG on AHC sensor; P66 at 200 nM
Experimental: Experiments were also conducted to determine the reactivity and dissociation constants ([…]) of anti-ANGPTL7 antibodies with the rabbit ANGPTL7 protein. Binding experiments were performed on Octet HTX (ForteBio) in Rx PBS, pH 7.4, 0.1 mg/mi BSA, 0.05% Sodium Azide, and 0.02% Tween 20. Antibodies at a concentration of 50 nM were loaded on pre-hydrated AHC biosensors for 5 min. The loaded sensors were dipped into monovalent P66 (rabbit ANGPTL7-his) at a concentration of 200 nM for 5 min of association, followed by 10 min of dissociation. […] Responses (nm) at the end of association were also determined (Table 6).

P62 (huANGPTL7-his) [1] = target: T2, P62 (huANGPTL7-his); assay: BLI Octet HTX; IgG on AHC sensor; P62 0.343-250 nM
Experimental: (§1) Experiments were also conducted to determine the reactivity and dissociation constants (KD) of anti-ANGPTL7 antibodies with the human ANGPTL7-his protein. Binding experiments were performed on Octet HTX (ForteBio) in 1×PBS, pH 7.4, 0.1 mg/mi BSA, 0.05% Sodium Azide, and 0.02% Tween 20. To measure monovalent binding kinetics, antibodies at a concentration of 50 nM were loaded on pre-hydrated AHC biosensors for 5 min. The loaded sensors were dipped into monovalent P62 (huANGPTL7-his) at a range of concentration from 0.343-250 nM (a serial 3-fold dilution) for 5 min association, followed by 10 min dissociation.

[2] = target: T3, muANGPTL7-his (R&D Systems); assay: BLI Octet HTX; IgG on AHC sensor; muANGPTL7-his at 200 nM
Outline: (§2)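 Anti-ANGPTL7 antibodies (50 nM) were loaded on AHC biosensors in PBS pH 7.4 with BSA, azide and Tween 20. Sensors were dipped in monovalent mouse ANGPTL7-his (200 nM) for 5 min association and 10 min dissociation. KD came from a 1:1 fit, and responses were taken at the end of association.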

[3] = target: T3, muANGPTL7-his (R&D Systems); assay: BLI Octet HTX; IgG on AHC sensor; muANGPTL7-his at 200 nM; 1:1 fit
Outline: as §2

[4] = target: T4, Pext-01 (huANGTPL7-FLAG multimer); assay: BLI Octet HTX; IgG on AHC sensor; Pext-01 at 100 nM
Experimental: Experiments were also conducted to determine the reactivity and dissociation constants (KD) of anti-ANGPTL7 antibodies with the human ANGPTL7 multimer protein. Binding experiments were performed on Octet HTX (ForteBio) in 1×PBS, pH 7.4, 0.1 mg/ml BSA, 0.05% Sodium Azide, and 0.02% Tween 20. Antibodies at a concentration of 50 nM were loaded on pre-hydrated AHC biosensors for 5 mi. The loaded sensors were dipped into Pext-01 (huANGTPL7-FLAG) at a concentration of 100 nM for 5 min of association, followed by 10 min of dissociation. […] Responses (nm) at the end of association were also determined (Table 7).

P62 (huANGPTL7-his) [5] = target: T2, P62 (huANGPTL7-his); assay: BLI Octet HTX; IgG on AHC sensor; P62 0.343-250 nM; global 1:1 fit
Experimental: as §1

Row | Binder | binding result (P66 (rabbit ANGPTL7-his)) | binding result (P62 (huANGPTL7-his) [1]) | binding result [2] | Response [3] | binding result [4] | Kd [3] | binding result (P62 (huANGPTL7-his) [5])
1 | ATX-P-428 (antibody, human IgG1, kappa, N297A, V domains shown, Full chains (VH + hIgG1-Agly-Fc)) VH: QVQLVQSGAEVKKPGASVKVSCKASGYTFSSYGISWVRQAPGQGLEWMGWISAYNGNTNYAQNLRGRVAMTTDTSTTTAYMELRSLRSDDTAVYYCARVSLVWFGELPRGFDYWGQGTLVTVSS VL: not shown | no binding (tested: 200 nM) | no binding (tested: 250 nM) | no binding (tested: 200 nM) | 0.04 nm | no binding (tested: 100 nM) | – | –
2 | ATX-P-449 (antibody, human IgG1, kappa, N297A, V domains shown, Full chains (VH + hIgG1-Agly-Fc)) VH: QVQLVESGGGVVQPGRSLRLSCAASGFAFSSYGMHWVRQAPGKGLEWVAVISYYGSNKYYADSVKGRFTISRDNSKNTLYLQMNSLRAEDTAVYHCARGITMDVWGKGTTVTVSS VL: EIVLTQSPATLSLSPGERATLSCRASQSVSSYLAWYQQKPGQAPRLLIYDASNRATGIPARFSGSGSGTDFTLTISSLEPEDFAVYYCQQRSNWPLTFGGGTKVEIKR | – | – | – | 0.75 nm | – | 0.857 nM | binds
3 | ATX-P-443 (antibody, human IgG1, kappa, N297A, V domains shown, Full chains (VH + hIgG1-Agly-Fc)) VH: QVQLVQSGAEVKKPGASVKVSCKASGYTFTSYGISWVRQAPGQGLEWMGWIIAYNGNTNYAQKLQGRITMTTNTSTNTAYMELRSLRSDDTAVYYCGRDTGFSFDYWGQGTLVTVSS VL: not shown | no binding (tested: 200 nM) | no binding (tested: 250 nM) | no binding (tested: 200 nM) | – | no binding (tested: 100 nM) | – | –
